Measured values taken from the supplement of paper PMC7877785.
± gives the uncertainty stated by the source.

Experiment: self-splicing fitness, log relative to wild type (ln ratio); higher = more splicing; Tetrahymena group I intron in knt gene, E. coli kanamycin selection, DiMSum; sequences stand for … in CUCUCU…GGAGGGAAAAGUUAUCAGGCAUGCACCUGGUAGCUAGUCUUUAAACCAAUAGAUUGCAUCGGUUUAAAAGGCAAGACCGUCAAAUUGCGGGAAAGGGGUCAACAGCCGUUCAGUACCAAGUCUCAGGGGAAACUUUGAGAUGGCCUUGCAAAGGGUAUGGUAAUAAGCUGACGGACAUGGUCCUAACCACGCAGCCAAGUCCUAAGUCAACAGAUCUUCUGUUGAUAUGGAUGCAGUUCACAGACUAAAUGUCGGUCGGGGAAGAUGUAUUCUUCUCAUAAGAUAUAGUCGGACCUCUCCUUAAUGGGAGCUAGCGGAUGAAGUGAUGCAACACUGGAGCCGCUGGGAACUAAUUUGUAUGCGAAAGUAUAUUGAUUAGUUUUGGAGUACUCGUGGUCG
Method in brief: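 Fitness was computed with DiMSum as the error-weighted combination of replicate fold changes, kanamycin versus none, each normalised to wild type. The library randomised all eight intron nucleotides of the P1ex region, with the intron placed in the knt kanamycin-resistance gene on pET-22b(+) in E. coli BL21(DE3). Six replicate transformations were grown overnight at 37°C or 30°C on LB agar with or without 25 μg/mL kanamycin, plus 100 μg/mL carbenicillin, 50 μM IPTG and 0.2% rhamnose. Pooled colonies were amplicon-sequenced on an Illumina HiSeq 2500.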

Row | Sequence | self-splicing fitness (ln) (30 °C) | self-splicing fitness (ln) (37 °C)
1 | CACCAGCAAUAUUACGCCCU | -4.12 ± 0.26 | -0.642 ± 0.11
2 | CACCAGCAAUAUUACGCCUU | -3.62 ± 0.14 | -1.72 ± 0.12
3 | CACCAGCAAUAUUACGCGAU | -2.55 ± 0.14 | -2.61 ± 0.21
4 | CACCAGCAAUAUUACGCGUC | -2.87 ± 0.15 | -0.883 ± 0.12
5 | CACCAGCAAUAUUACGCUGC | -4.19 ± 0.22 | -2 ± 0.16
6 | CACCAGCAAUAUUACGCUGG | -5.21 ± 0.25 | -2.41 ± 0.16
7 | CACCAGCAAUAUUACGCUGU | -3.61 ± 0.15 | -2.63 ± 0.19
8 | CACCAGCAAUAUUACGGAGG | -1.85 ± 0.078 | -1.4 ± 0.11
9 | CACCAGCAAUAUUACGGAUC | -1.96 ± 0.08 | -1.32 ± 0.094
10 | CACCAGCAAUAUUACGGCAG | -0.179 ± 0.045 | -0.218 ± 0.063
11 | CACCAGCAAUAUUACGGCCA | -0.747 ± 0.067 | -1.22 ± 0.082
12 | CACCAGCAAUAUUACGGCUA | -1.1 ± 0.083 | -0.202 ± 0.074
13 | CACCAGCAAUAUUACGGCUG | -3.78 ± 0.13 | -1.29 ± 0.083
14 | CACCAGCAAUAUUACGUCCC | -4.07 ± 0.31 | -2.79 ± 0.32
15 | CACCAGCAAUAUUACGUCGU | -3.78 ± 0.13 | -1.83 ± 0.097
16 | CACCAGCAAUAUUACGUCUC | -2.89 ± 0.13 | -2.38 ± 0.21
17 | CACCAGCAAUAUUACGUGAA | -4.03 ± 0.14 | -0.875 ± 0.096
18 | CACCAGCAAUAUUACGUGCU | -3.4 ± 0.11 | -2.7 ± 0.15
19 | CACCAGCAAUAUUACGUUGG | -4.24 ± 0.13 | -2.74 ± 0.13
20 | CACCAGCAAUAUUACGUUUC | -4.36 ± 0.19 | -2.58 ± 0.22
21 | CACGAGCAAUAUUACGAACC | – | -1.7 ± 0.32
22 | CACGAGCAAUAUUACGAACU | – | -1.72 ± 0.38
23 | CACGAGCAAUAUUACGACAC | -2.84 ± 0.23 | -2.18 ± 0.3
24 | CACGAGCAAUAUUACGAGGA | -2.27 ± 0.15 | -2.68 ± 0.16
25 | CACGAGCAAUAUUACGAUCC | – | -1.9 ± 0.47

Row | Sequence | self-splicing fitness (ln) (30 °C) | self-splicing fitness (ln) (37 °C)
26 | CACGAGCAAUAUUACGAUCU | – | -1.99 ± 0.27
27 | CACGAGCAAUAUUACGCAGU | -3.4 ± 0.31 | -3.5 ± 0.37
28 | CACGAGCAAUAUUACGCAUG | -3.6 ± 0.11 | -2.74 ± 0.15
29 | CACGAGCAAUAUUACGCGGC | – | -1.38 ± 0.22
30 | CACGAGCAAUAUUACGCGUA | -2.23 ± 0.12 | -1.28 ± 0.15
31 | CACGAGCAAUAUUACGCUCG | -4.11 ± 0.39 | -1.3 ± 0.22
32 | CACGAGCAAUAUUACGGCGC | – | -1.73 ± 0.4
33 | CACGAGCAAUAUUACGGUUG | -3.57 ± 0.15 | -1.6 ± 0.12
34 | CACGAGCAAUAUUACGUAGA | -2.34 ± 0.095 | -3.42 ± 0.29
35 | CACGAGCAAUAUUACGUCAU | -3.65 ± 0.19 | -2.49 ± 0.21
36 | CACGAGCAAUAUUACGUCUU | -2.89 ± 0.22 | -2.82 ± 0.24
37 | CACGAGCAAUAUUACGUUCA | -2.99 ± 0.18 | -2.49 ± 0.24
38 | CACGAGCAAUAUUACGUUCC | -2.89 ± 0.34 | -2.15 ± 0.34
39 | CACGAGCAAUAUUACGUUGG | -3.11 ± 0.16 | -1.79 ± 0.14
40 | CACGAGCAAUAUUACGUUGU | -3.37 ± 0.15 | -2.8 ± 0.18
41 | CACUAGCAAUAUUACGAAUG | -1.7 ± 0.075 | -1.01 ± 0.086
42 | CACUAGCAAUAUUACGAGGA | -4.01 ± 0.31 | -1.49 ± 0.15
43 | CACUAGCAAUAUUACGAUUU | -2.4 ± 0.12 | -2.2 ± 0.15
44 | CACUAGCAAUAUUACGCCGA | -2.8 ± 0.21 | -1.49 ± 0.17
45 | CACUAGCAAUAUUACGCGCC | -2.9 ± 0.23 | -1.22 ± 0.22
46 | CACUAGCAAUAUUACGCGGG | -2.48 ± 0.13 | -2.01 ± 0.15
47 | CACUAGCAAUAUUACGCUGU | -3.17 ± 0.14 | -3.3 ± 0.23
48 | CACUAGCAAUAUUACGGAUU | -4.22 ± 0.2 | -2.28 ± 0.12
49 | CACUAGCAAUAUUACGGCCA | -3.1 ± 0.23 | –
50 | CACUAGCAAUAUUACGGCCG | 0.0261 ± 0.086 | -0.0313 ± 0.12

Row | Sequence | self-splicing fitness (ln) (30 °C) | self-splicing fitness (ln) (37 °C)
51 | CACUAGCAAUAUUACGGGAC | -3.86 ± 0.21 | -1.7 ± 0.18
52 | CACUAGCAAUAUUACGGGGA | -2.57 ± 0.19 | -1.63 ± 0.17
53 | CACUAGCAAUAUUACGGGGC | -3.4 ± 0.17 | -2.23 ± 0.14
54 | CACUAGCAAUAUUACGUACU | -2.87 ± 0.16 | -2.81 ± 0.19
55 | CACUAGCAAUAUUACGUCAA | -3.77 ± 0.22 | -2.27 ± 0.14
56 | CACUAGCAAUAUUACGUCCG | -0.0671 ± 0.11 | 0.268 ± 0.13
57 | CACUAGCAAUAUUACGUGAU | -3.32 ± 0.12 | -3.21 ± 0.15
58 | CACUAGCAAUAUUACGUUCG | 0.203 ± 0.084 | 0.725 ± 0.11
59 | CACUAGCAAUAUUACGUUGU | -4.22 ± 0.14 | -2.08 ± 0.12
60 | CACUAGCAAUAUUACGUUUU | -2.97 ± 0.12 | -2.4 ± 0.13
61 | CAGAAGCAAUAUUACGAAGG | -1.23 ± 0.12 | -1.1 ± 0.16
62 | CAGAAGCAAUAUUACGACGC | -3 ± 0.14 | -1.28 ± 0.12
63 | CAGAAGCAAUAUUACGAGGA | -4.09 ± 0.4 | -2.01 ± 0.2
64 | CAGAAGCAAUAUUACGAGGU | -4.11 ± 0.36 | -3 ± 0.32
65 | CAGAAGCAAUAUUACGAUAG | -0.588 ± 0.075 | 0.256 ± 0.093
66 | CAGAAGCAAUAUUACGCAAG | -2.45 ± 0.098 | -1.21 ± 0.092
67 | CAGAAGCAAUAUUACGCCUA | -0.835 ± 0.12 | -0.744 ± 0.093
68 | CAGAAGCAAUAUUACGCGAA | – | -1.94 ± 0.23
69 | CAGAAGCAAUAUUACGCGUG | -4.79 ± 0.27 | -2.62 ± 0.12
70 | CAGAAGCAAUAUUACGCUAU | -3.4 ± 0.16 | -3.04 ± 0.16
71 | CAGAAGCAAUAUUACGGAUU | -3.13 ± 0.12 | -2.47 ± 0.14
72 | CAGAAGCAAUAUUACGGCGA | -1.43 ± 0.15 | -1.5 ± 0.18
73 | CAGAAGCAAUAUUACGGCGG | -0.0667 ± 0.084 | -0.292 ± 0.12
74 | CAGAAGCAAUAUUACGGGAG | -1.6 ± 0.12 | -0.856 ± 0.12
75 | CAGAAGCAAUAUUACGGGGA | -4.87 ± 0.36 | -1.61 ± 0.11

Row | Sequence | self-splicing fitness (ln) (30 °C) | self-splicing fitness (ln) (37 °C)
76 | CAGAAGCAAUAUUACGGGGU | -2.98 ± 0.19 | -2.34 ± 0.21
77 | CAGAAGCAAUAUUACGGUAG | -0.817 ± 0.065 | -0.323 ± 0.08
78 | CAGAAGCAAUAUUACGGUCC | -2.94 ± 0.33 | –
79 | CAGAAGCAAUAUUACGUACG | -0.111 ± 0.089 | 0.665 ± 0.14
80 | CAGAAGCAAUAUUACGUAUC | – | -3.17 ± 0.24
81 | CAGAAGCAAUAUUACGUCAC | -3.02 ± 0.36 | -1.05 ± 0.25
82 | CAGAAGCAAUAUUACGUGCU | -2.7 ± 0.17 | -1.23 ± 0.14
83 | CAGAAGCAAUAUUACGUGGA | -2.71 ± 0.18 | -3.1 ± 0.2
84 | CAGAAGCAAUAUUACGUGUU | -4.1 ± 0.18 | -3.45 ± 0.16
85 | CAGAAGCAAUAUUACGUUAG | -0.919 ± 0.077 | -0.262 ± 0.097
86 | CAGCAGCAAUAUUACGAAAC | -3.65 ± 0.23 | –
87 | CAGCAGCAAUAUUACGACCU | -2.57 ± 0.14 | -1.57 ± 0.12
88 | CAGCAGCAAUAUUACGAGCA | -2.5 ± 0.12 | -1.04 ± 0.093
89 | CAGCAGCAAUAUUACGAUCC | -2.11 ± 0.22 | -2.73 ± 0.4
90 | CAGCAGCAAUAUUACGAUGA | -2.7 ± 0.21 | -1.31 ± 0.14
91 | CAGCAGCAAUAUUACGAUUC | -3.27 ± 0.25 | -1.78 ± 0.16
92 | CAGCAGCAAUAUUACGCACC | -2.66 ± 0.29 | -1.32 ± 0.47
93 | CAGCAGCAAUAUUACGCAGA | -2.32 ± 0.28 | -1.19 ± 0.13
94 | CAGCAGCAAUAUUACGCAGU | -3.81 ± 0.18 | -3.35 ± 0.22
95 | CAGCAGCAAUAUUACGCAUG | -3.11 ± 0.16 | -2.42 ± 0.16
96 | CAGCAGCAAUAUUACGCCAA | -3.43 ± 0.32 | -1.87 ± 0.17
97 | CAGCAGCAAUAUUACGCCGU | -2.74 ± 0.22 | -2.41 ± 0.28
98 | CAGCAGCAAUAUUACGCUAG | -2.8 ± 0.16 | -2.1 ± 0.21
